{"source": "paper PMC9100220", "about": "“Fluorescence Lifetime Phasor Analysis of the Decamer–Dimer Equilibrium of Human Peroxiredoxin 1” (International Journal of Molecular Sciences, 2022)", "proteins": {"B1": {"name": "human peroxiredoxin 1 (enzyme, UniProt Q06830 1-199, looked up)", "chain": "MSSGNAKIGHPAPNFKATAVMPDGQFKDISLSDYKGKYVVFFFYPLDFTFVCPTEIIAFSDRAEEFKKLNCQVIGASVDSHFCHLAWVNTPKKQGGLGPMNIPLVSDPKRTIAQDYGVLKADEGISFRGLFIIDDKGILRQITVNDLPVGRSVDETLRLVQAFQFTDKHGEVCPAGWKPGSDTIKPDVQKSKEYFSKQK", "notes": "human peroxiredoxin 1 (hPrx1), recombinant; The protein is an obligate homodimer; five dimers form a ring-shaped decamer; It was used in the reduced state, with 1 mM DTT in all measurements; also called hPrx1; human Prx1; source: E. coli BL21(DE3), purified from bacterial lysates; reduced with 10 mM DTT before all experiments"}}, "key": {"[1]": {"target": "the molecule itself", "assay": "SEC; Superdex 200 5/150 GL, PBS pH 7.4 with 1 mM DTT, room temperature; low hPrx1 concentrations (e.g. 0.5 uM): peak at 5.2 min"}, "[2]": {"target": "the molecule itself", "assay": "SEC; Superdex 200 5/150 GL, PBS pH 7.4 with 1 mM DTT, room temperature; high hPrx1 concentrations (e.g. 20 uM): peak at 3.9 min"}}, "data": [{"protein": "B1", "values": [{"measurement": "stoichiometry N", "setting": "[1]", "value": 2}, {"measurement": "stoichiometry N", "setting": "[2]", "value": 10}]}]}
